Measured values taken from patent US20140162950A1.

Target: integrin α3β1 on gastric cancer cells (MKN45, MKN45/CTGF, AGS) (human) (UniProt P26006)
Assay: cell-based or functional assay

UniProt P26006, sequence (P26006 33-1051, chain 1 of 2): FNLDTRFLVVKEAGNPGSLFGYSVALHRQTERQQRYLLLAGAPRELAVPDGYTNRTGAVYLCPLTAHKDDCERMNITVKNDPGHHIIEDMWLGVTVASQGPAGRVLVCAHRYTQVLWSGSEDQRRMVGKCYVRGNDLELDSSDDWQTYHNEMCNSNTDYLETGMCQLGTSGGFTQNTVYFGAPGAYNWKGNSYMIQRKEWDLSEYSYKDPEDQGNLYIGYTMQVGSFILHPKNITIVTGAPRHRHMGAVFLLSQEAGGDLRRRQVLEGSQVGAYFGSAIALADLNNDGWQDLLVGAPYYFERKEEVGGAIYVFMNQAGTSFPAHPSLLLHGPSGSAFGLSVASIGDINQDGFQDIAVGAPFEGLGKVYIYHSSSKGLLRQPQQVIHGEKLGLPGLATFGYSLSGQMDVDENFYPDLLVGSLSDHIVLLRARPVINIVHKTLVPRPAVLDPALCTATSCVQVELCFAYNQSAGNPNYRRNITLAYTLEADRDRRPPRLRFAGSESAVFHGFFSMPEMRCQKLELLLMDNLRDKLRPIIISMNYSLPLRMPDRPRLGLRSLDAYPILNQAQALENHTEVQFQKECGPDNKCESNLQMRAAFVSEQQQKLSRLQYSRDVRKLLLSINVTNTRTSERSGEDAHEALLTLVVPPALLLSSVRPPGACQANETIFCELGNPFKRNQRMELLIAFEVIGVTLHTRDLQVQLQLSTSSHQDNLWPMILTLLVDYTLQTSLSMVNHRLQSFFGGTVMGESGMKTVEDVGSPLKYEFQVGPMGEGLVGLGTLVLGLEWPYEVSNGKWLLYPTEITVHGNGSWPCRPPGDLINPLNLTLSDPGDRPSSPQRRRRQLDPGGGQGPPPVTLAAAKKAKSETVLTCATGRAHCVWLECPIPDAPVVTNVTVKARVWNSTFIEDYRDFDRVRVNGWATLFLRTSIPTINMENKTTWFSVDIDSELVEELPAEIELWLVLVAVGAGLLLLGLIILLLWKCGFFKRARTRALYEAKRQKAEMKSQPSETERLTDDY
UniProt P26006, sequence (P05556 21-798, chain 2 of 2, further chain): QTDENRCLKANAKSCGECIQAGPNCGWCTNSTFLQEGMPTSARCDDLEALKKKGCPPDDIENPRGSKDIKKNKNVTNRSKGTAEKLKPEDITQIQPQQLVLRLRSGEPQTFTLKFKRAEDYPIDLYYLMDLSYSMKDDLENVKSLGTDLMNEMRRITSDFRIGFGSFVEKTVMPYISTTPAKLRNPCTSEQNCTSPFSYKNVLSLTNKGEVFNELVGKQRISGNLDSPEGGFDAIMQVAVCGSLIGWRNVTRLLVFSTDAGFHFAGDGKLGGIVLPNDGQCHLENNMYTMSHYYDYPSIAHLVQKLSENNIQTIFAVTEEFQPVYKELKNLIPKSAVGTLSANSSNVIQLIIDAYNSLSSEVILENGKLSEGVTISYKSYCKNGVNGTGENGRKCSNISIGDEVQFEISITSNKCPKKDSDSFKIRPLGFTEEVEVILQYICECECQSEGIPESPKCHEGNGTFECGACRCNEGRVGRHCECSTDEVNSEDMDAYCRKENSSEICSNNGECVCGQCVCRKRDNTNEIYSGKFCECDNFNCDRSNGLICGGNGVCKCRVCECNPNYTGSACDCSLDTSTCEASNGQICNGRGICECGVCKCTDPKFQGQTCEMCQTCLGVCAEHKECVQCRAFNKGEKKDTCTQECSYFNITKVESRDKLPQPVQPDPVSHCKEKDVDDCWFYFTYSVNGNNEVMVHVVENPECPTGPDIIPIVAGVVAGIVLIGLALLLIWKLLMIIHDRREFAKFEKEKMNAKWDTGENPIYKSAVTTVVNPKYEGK

Work on “recombinant CTGF C terminal (CT) domain (from UniProt P29279 253-349) (ligand)” yielded an adhesion inhibition (MKN45 cells, matrigel adhesion assay, 6 hours post treatment, 50 ng rCTGF) of 50%, an adhesion inhibition (MKN45 cells, matrigel adhesion assay, 6 hours post treatment, 100 ng rCTGF) of 70% and an adhesion inhibition (MKN45 cells, matrigel adhesion assay, 6 hours post treatment, 200 ng rCTGF) of 75%.
